Our source for the amyloid nucleation score values is the supplement of paper PMC12042874.

This data set is described as follows: amyloid nucleation score (Sup35N fusion, yeast selection) (log enrichment); library NNK1; higher = more nucleation; inactive = no reads after selection. An outline of the steps: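 Peptides of 20 random codons, each fused to Sup35N, were expressed in psi-negative yeast. Cells were induced with 100 μM copper sulfate for 24 hours and grown 7 days at 30°C on medium lacking adenine and uracil, and plasmid inserts before and after selection were Illumina-sequenced. Nucleation scores are DiMSum log enrichments of output over input reads, centred on the mode score of non-aggregating sequences, and sequences under 100 input reads were excluded.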

± gives the uncertainty stated by the source.

In the case of NSFRAAHWSEMVPAELGRSV, the amyloid nucleation score was -0.513 ± 0.41.
For the substance FVVVHRSASGPEIQFLKGGR, the amyloid nucleation score was -0.684 ± 0.4.
Then HLSYI, with -0.455 ± 1.7; and KSAANTINIRPENETVPRFQ, with 0.556 ± 0.59.
The substance GSEFQVLSFF had an amyloid nucleation score of 0.419 ± 0.58.
The value for LRAWMSVASDNGLLMFCRNH was -0.324 ± 0.46; that for VFLIAWGLFSRMC was 4.54 ± 0.11; that for GYNKHLGNSGSYVHQNGAQF was 1.06 ± 0.39.
FVLQWRNIRVVDLRMRPYPK came in with an amyloid nucleation score of 0.508 ± 0.28.
The substance LNDGTGDQ returned an amyloid nucleation score of -0.138 ± 0.37.
The substance MMPVRWHMFDAWDLWIDLER had an amyloid nucleation score of -0.456 ± 0.88.
With QCRITDSFCSGA, the amyloid nucleation score was -0.163 ± 0.45.
In turn, AHYRV yielded an amyloid nucleation score of 0.014 ± 0.48.
In turn, WIPSFIQMDTVVRDTVNKEF had an amyloid nucleation score of 1.09 ± 0.74.
In turn, NVIVKDLVLDNTFCVARVQA registered an amyloid nucleation score of -0.639 ± 0.42.
The substance RFGTY came in with an amyloid nucleation score of -0.067 ± 0.94.
Consider VLKGNKRRVLNAWVAYVLRS, for which the amyloid nucleation score was determined as 0.273 ± 0.35.
Then SHVGSYSWVCSRLARIGCER, with -0.703 ± 0.46.
Substance GIAAYNGDLWMRLCYL came in with an amyloid nucleation score of -0.255 ± 0.88.
The value for TLYIYAMEDSGGFEDGGMCI was 4.18 ± 0.1; that for RVWCKWH was 0.027 ± 1.4.
Then SLLRARIKVVPV, with -1.46 ± 1.6; and KHYFCKMSV, with -0.029 ± 0.37.
Regarding GLVSQPFWCSYKCGGHNHKG, the amyloid nucleation score is 0.314 ± 1.4.
In turn, ECDYDYGTSWSQVSYVRGV came in with an amyloid nucleation score of -0.773 ± 1.2.
AMPYCGK showed an amyloid nucleation score of 0.575 ± 0.36.
For the substance VRTYWTYANWIFMYKKRAQA, the amyloid nucleation score was -1.85 ± 2.4.
The substance WRMYMYVNNPSNKHWVRRAS had an amyloid nucleation score of -0.488 ± 0.51.
In turn, RNGCKFTKLFETVRFKEEGF had an amyloid nucleation score of -1.03 ± 0.48.
For the substance YMSVWFVTVSMDCVGRNSRT, the amyloid nucleation score is 4.19 ± 0.058.
MMAFCS displayed an amyloid nucleation score of 0.264 ± 0.39.
With SNSAFCNGSVMCVEVSLRHA, the amyloid nucleation score is 7.037 ± 0.062.
LSRTSKSPFGGEFLERHIYI gave an amyloid nucleation score of -0.42 ± 1.
Then SYGLWHMAM, with -0.232 ± 0.54; and SAVGAIDANIYKSDGYSWG, with -0.879 ± 0.58; and IARLHT, with “inactive”.
In turn, GDIALS returned an amyloid nucleation score of -0.292 ± 0.41.
In the case of SEIPVNGLARLCRGRYRNRQ, the amyloid nucleation score turned out to be 4.66 ± 0.11.
For NNYNYLYTYNMQNQKQFIFM, the amyloid nucleation score came to 7.281 ± 0.066.
The value for PSSHWIAPNFVVN was “inactive”.
The substance IMFTWWEYRLRSLEV registered an amyloid nucleation score of -0.334 ± 0.48.
In turn, LSGLRNVLPLLTMYASIMKV came in with an amyloid nucleation score of 0.688 ± 0.7.
With VNNYTF, the amyloid nucleation score was found to be 0.234 ± 0.28.
In the case of RMGVA, the amyloid nucleation score came out at 0.644 ± 0.92.
Turning to YSRGGFGHWFQHSL, the amyloid nucleation score was -0.482 ± 1.7.
In the case of TYEPLTLMNGVLSVRSGPGI, the amyloid nucleation score is -0.508 ± 1.
With SYLFWDRCYSA, the amyloid nucleation score was -0.247 ± 0.4.
For SKDKGSTLGTSNLGRDGSWK, the amyloid nucleation score came to 0.5 ± 0.45.
LMDIGPANEKFN had an amyloid nucleation score of -1.18 ± 1.4.
Then TNVFGILYFEYFLVLDG, with 0.208 ± 0.3.
FGKGNEGTIGNI showed an amyloid nucleation score of -0.22 ± 0.76.
As for KFIIVLILDCITIHHSVVVS, the amyloid nucleation score is -0.819 ± 0.67.
On to RCCSFRLYLFTEG, for which the amyloid nucleation score came to 4.78 ± 0.068.
In the case of YKAKGRNAVS, the amyloid nucleation score is -0.689 ± 1.6.
Consider CLYVAESSTTMNLWDHSVLP, for which the amyloid nucleation score was -0.575 ± 0.41.
In turn, FFVLFEVYMVWFTEGFARLA yielded an amyloid nucleation score of -0.733 ± 0.57.
In turn, NTFYCCFLFFY yielded an amyloid nucleation score of 6.517 ± 0.044.
Take SVSVQERTSGVYSHVSSENY: the amyloid nucleation score is -0.162 ± 0.45.
For DWPMELLASYMTPMLVTRV, the amyloid nucleation score entry is “inactive”.
The value for TNVMLPNGVGFLAPAVHCES was 1.04 ± 0.51; that for IQLYIYCNMWKVGGKEWRAW was 5.78 ± 0.087.
Substance LYFVCIFPYRVRTECSEQSR registered an amyloid nucleation score of 4.32 ± 0.095.
For the substance NSGVVRLFPYFMYRTAWLKS, the amyloid nucleation score was determined as 0.224 ± 0.41.
Then YLFHMKARCMLFHKLLTYSR, with “inactive”; and TCIWDKPVSSGL, with -0.543 ± 1; and AYAGLRCVGSDVIAGKTVAN, with 0.684 ± 1.2.
NVDFTSYMLDMM: the amyloid nucleation score came out at 0.042 ± 0.41.
The value for SNPTYLWVVLLVRSAALRMD was “inactive”.
For the substance EGDYNGGCCQGLLNCQ, the amyloid nucleation score was -0.562 ± 0.56.
The substance DNIYIYIPVTYFCATLRMWR gave an amyloid nucleation score of 5.09 ± 0.071.
In turn, VGRLGVEG yielded an amyloid nucleation score of -0.305 ± 0.25.
Then SVVSFINLIASYFRELVGAV, with 0.225 ± 0.95.
In the case of SYLNPTVMILGFYP, the amyloid nucleation score was 0.825 ± 0.41.
The substance DISMLRKKSCKHTVNMMSL yielded an amyloid nucleation score of -0.431 ± 0.27.
The substance CLLLARVVALVGPPSRTSGV returned an amyloid nucleation score of -0.121 ± 0.4.
YCSKRFLVKRNFLLFYNCDF showed an amyloid nucleation score of 1.03 ± 0.5.
The substance RDFRYCFRCVIINMHRDHFQ had an amyloid nucleation score of 3.99 ± 0.06.
The substance AVLKGYRWACMVFLSGFGRC came in with an amyloid nucleation score of 0.243 ± 0.41.
In turn, LRDTFPVLLAILCMNIINNC gave an amyloid nucleation score of -0.14 ± 0.29.
The value for VLRRLRSWRKVELENNRGKM was “inactive”.
Consider FRLLGLTR, for which the amyloid nucleation score worked out at 0.087 ± 0.62.
RYRSMHHFRVHDKHPMLGYA displayed an amyloid nucleation score of 1.34 ± 0.84.
Regarding VFSKHRFSIYCSRYAEPTTR, the amyloid nucleation score stood at 0.002 ± 0.31.
Then RPCNEGFWLHNHGRSNSSSS, with -0.462 ± 0.52.
SKEESPMTFVWILGGHSELS returned an amyloid nucleation score of -0.448 ± 0.32.
Then GIGVKSEGHVINDFYKLRER, with 0.002 ± 0.45; and INETLYRTFSRL, with -0.471 ± 0.56; and FYIVIDYFRNCAG, with 0.005 ± 0.38.
Turning to FEGNQDIYMVRTWKDKMRLV, the amyloid nucleation score is -0.107 ± 0.45.
On to CDEGWEESNSTD, for which the amyloid nucleation score was -0.522 ± 1.6.
In turn, DAWGTVRYSIGFKGVVAMTS returned an amyloid nucleation score of 0.149 ± 0.29.
Regarding VAVVLYAQTV, the amyloid nucleation score is -0.376 ± 0.63.
Take VWFVVGGGE: the amyloid nucleation score amounted to 1.7 ± 0.42.
Consider RYPTGAKKLQMLNDVLMLYR, for which the amyloid nucleation score is -0.479 ± 0.3.
NLPLLFL came in with an amyloid nucleation score of -0.069 ± 0.27.
In turn, DGGAFAGRS came in with an amyloid nucleation score of -1.06 ± 0.81.
On to LYVPCAIVGSLTRG, for which the amyloid nucleation score turned out to be 1.06 ± 0.66.
For the substance SYKSWQ, the amyloid nucleation score was 0.978 ± 0.43.
On to RYTLFCLSVNYWWTFWLDSV, for which the amyloid nucleation score came out at 1.61 ± 0.58.
The value for WVNCLFIYWFCFDALPIIVE was -0.616 ± 0.4; that for DICVWDYMNRGGQLL was -0.047 ± 0.86; that for TSCSVSLVWLFLGVRLCVLC was -0.009 ± 0.24.
VYKCSQVDRVCKMAWVGLKS displayed an amyloid nucleation score of 0.205 ± 0.34.
As for GSALIE, the amyloid nucleation score stood at 1.5 ± 0.74.
On to DAEWF, for which the amyloid nucleation score turned out to be 0.393 ± 0.27.
